Data reported in patent US20210107981A1 (SUTRO BIOPHARMA, published 2021).
Where a chain is given by its changes, count along the chain named.

B1: h1E9-HC3 × h1E9-LC3 IgG (antibody)
heavy: not shown
light: MEIVLTQSPGTLSLSPGERATLSCRASESVDNSGISFMSWYQQKPGQAPRLLIYTASNQGSGIPDRFSGSGSGTDFTLTISRLEPEDFAVYYCQQSKEVPWTFGQGTKVEIKRTVAAPSVFIFPPSDEQLKSGTASVVCLLNNFYPREAKVQWKVDNALQSGNSQESVTEQDSKDSTYSLSSTLTLSKADYEKHKVYACEVTHQGLSSPVTKSFNRGEC
notes: Humanized IgG; heavy chain with C-terminal FlagHis tag
B2: h1E9-HC1 × h1E9-LC3 IgG (antibody)
heavy: not shown
light: B1 light
notes: as for B1
B3: h1E9-HC2 × h1E9-LC3 IgG (antibody)
heavy: not shown
light: B1 light
notes: as for B1
B4: h1E9-5-IgG-HC-FLAG-HIS × h1E9-LC3 IgG (antibody)
heavy: not shown
light: B1 light
notes: also called h1E9-5 HC × h1E9-LC3
B5: h1E9-HC3 × h1E9-LC2 IgG (antibody)
heavy: not shown
light: MDIVLTQSPLSLPVTPGEPASISCRASESVDNSGISFMSWYLQKPGQSPQLLIYTASNQGSGVPDRFSGSGSGTDFTLKISRVEAEDVGVYYCQQSKEVPWTFGQGTKVEIKRTVAAPSVFIFPPSDEQLKSGTASVVCLLNNFYPREAKVQWKVDNALQSGNSQESVTEQDSKDSTYSLSSTLTLSKADYEKHKVYACEVTHQGLSSPVTKSFNRGEC
notes: as for B1
B6: h1E9-5-IgG-HC-FLAG-HIS × h1E9-LC2 IgG (antibody)
heavy: not shown
light: B5 light
notes: also called h1E9-5 HC × h1E9-LC2
B7: h1E9-HC3 × h1E9-LC1 IgG (antibody)
heavy: not shown
light: MDIQLTQSPSSLSASVGDRVTITCRASESVDNSGISFMSWYQQKPGKAPKLLIYTASNQGSGVPSRFSGSGSGTDFTFTISSLQPEDIATYYCQQSKEVPWTFGQGTKVEIKRTVAAPSVFIFPPSDEQLKSGTASVVCLLNNFYPREAKVQWKVDNALQSGNSQESVTEQDSKDSTYSLSSTLTLSKADYEKHKVYACEVTHQGLSSPVTKSFNRGEC
notes: as for B1
B8: h1E9-5-IgG-HC-FLAG-HIS × h1E9-LC1 IgG (antibody)
heavy: not shown
light: B7 light
notes: also called h1E9-5 HC × h1E9-LC1
B9: h1E9-HC1 × h1E9-LC1 IgG (antibody)
heavy: not shown
light: B7 light
notes: as for B1
B10: h1E9-HC2 × h1E9-LC1 IgG (antibody)
heavy: not shown
light: B7 light
notes: as for B1
B11: h1E9-2 (VH3-21-Vκ3-11) scFv (scFv)
scFv: MEVQLVESGGGLVKPGGSLRLSCAASGFTFSTFGMSWVRQAPGKGLEWVSTISGGGSDTYYPDSVQGRFTISRDNAKNSLYLQMNSLRAEDTAVYYCARQGYDVYSWFAYWGQGTLVTVSSGGGGSGGGGSGGGGSEIVLTQSPATLSLSPGERATLSCRASESVDNSGISFMSWYQQKPGQAPRLLIYTASNQGSGIPARFSGSGSGTDFTLTISSLEPEDFAVYYCQQSKEVPWTFGQGTKVEIKGSGDYKDDDDKGSGHHHHHH
notes: Whole scFv chain with FlagHis tag
B12: h1E9-5 (VH3-7-Vκ3-11) scFv (scFv)
scFv: B11 scFv with K14Q, S50A
notes: as for B11
B13: h4B10-1 (VH3-15-Vκ3-11) scFv (scFv)
scFv: MEVQLVESGGGLVKPGGSLRLSCAASGFTFSTYGMSWVRQAPGKGLEWVATISGGGSNTYYSDSVKGRFTISRDDSKNTLYLQMNSLKTEDTAVYYCARQRDSAWFASWGQGTLVTVSSGGGGSGGGGSGGGGSEIVLTQSPATLSLSPGERATLSCRASENVDDYGVSFMNWYQQKPGQAPRLLIYPASNQGSGIPARFSGSGSGTDFTLTISSLEPEDFAVYYCQQSKEVPWTFGQGTKVEIKGSGDYKDDDDKGSGHHHHHH
notes: as for B11
B14: h4B10-2 (VH3-15-Vκ3-20) scFv (scFv)
scFv: B13 scFv with A143G, A198D, S215R
notes: as for B11
B15: h1E9-1 (VH3-21-Vκ1-9) scFv (scFv)
scFv: MEVQLVESGGGLVKPGGSLRLSCAASGFTFSTFGMSWVRQAPGKGLEWVSTISGGGSDTYYPDSVQGRFTISRDNAKNSLYLQMNSLRAEDTAVYYCARQGYDVYSWFAYWGQGTLVTVSSGGGGSGGGGSGGGGSDIQLTQSPSFLSASVGDRVTITCRASESVDNSGISFMSWYQQKPGKAPKLLIYTASNQGSGVPSRFSGSGSGTEFTLTISSLQPEDFATYYCQQSKEVPWTFGQGTKVEIKGSGDYKDDDDKGSGHHHHHH
notes: as for B11
B16: h1E9-4 (VH3-7-Vκ1-9) scFv (scFv)
scFv: B15 scFv with K14Q, S50A
notes: as for B11
B17: h4B10-3 (VH3-15-Vκ4-1) scFv (scFv)
scFv: MEVQLVESGGGLVKPGGSLRLSCAASGFTFSTYGMSWVRQAPGKGLEWVATISGGGSNTYYSDSVKGRFTISRDDSKNTLYLQMNSLKTEDTAVYYCARQRDSAWFASWGQGTLVTVSSGGGGSGGGGSGGGGSDIVMTQSPDSLAVSLGERATINCRASENVDDYGVSFMNWYQQKPGQPPKLLIYPASNQGSGVPDRFSGSGSGTDFTLTISSLQAEDVAVYYCQQSKEVPWTFGGGTKLEIKGSGDYKDDDDKGSGHHHHHH
notes: as for B11
B18: m4B10 scFv (scFv)
scFv: MEVKLVESGGGLVKPGGSLKLSCAASGFTFSTYGMSWVRQTPEKRLQWVATISGGGSNTYYSDSVKGRFTISRDNAKNNLYLQMSSLRSEDTALYYCARQRDSAWFASWGQGTLVTVSAGGGGSGGGGSGGGGSDIVLTQSPASLAVSLGQRATISCRASENVDDYGVSFMNWFQQKPGQPPKLLIYPASNQGSGVPARFSGSGSGTDFSLNIHPMEEDDTAMYFCQQSKEVPWTFGGGTKLEIKGSGDYKDDDDKGSGHHHHHH
notes: Mouse single-chain antibody, whole chain with FlagHis tag
B19: m1B10 scFv (scFv)
scFv: MSDVQLQESGPGLVKPSQSLSLTCTVTGHSITSDYAWNWIRQFPGNKLEWMGYISYSGRTSYNPSLTSRISITRDTSKNQFFLQLNSVTTEDTATYYCARGYALDYWGQGTSVTVSSGGGGSGGGGSGGGGSQIVLSQSPAILSASPGEKVTMTCRTSSSVNYMHWFQQKPGSSPKPWIYATSKLASGVPARFSGSGSGTSYSLTISRVEAEDAATYFCQQWISDPWTFGGGTKLEIKGSGDYKDDDDKGSGHHHHHH
notes: as for B18

Molecular target: T1, Human PD-1 (ACROBiosystems, Inc., Catalog No. PD1-H5221) (human, UniProt Q15116 25-167)
T1 construct: Bought recombinant protein; also called huPD1-His; PD-1-his; not shown: His tag of the bought protein (huPD1-His)
Test: SPR (Biacore), IgG as ligand, PD-1-his as sample

T1 sequence (Q15116 25-167 limits assumed): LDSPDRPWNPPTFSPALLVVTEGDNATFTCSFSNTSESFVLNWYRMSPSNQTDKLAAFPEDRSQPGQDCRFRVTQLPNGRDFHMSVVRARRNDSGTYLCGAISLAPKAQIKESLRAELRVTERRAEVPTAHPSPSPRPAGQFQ

Row | Binder | Kd [nM]
1 | B1 | 16.9
2 | B2 | 6.38
3 | B3 | 10.9
4 | B4 | 16.3
5 | B5 | 3.19
6 | B6 | 16.2
7 | B7 | 3.6
8 | B8 | 3.7
9 | B9 | 5.08
10 | B10 | 3.11

Molecular target: T2, cynomolgus PD-1 expressed on CHO cells (cynomolgus, UniProt B0LAJ3 25-288)
T2 construct: also called Cell-Surface Cynomolgus PD-1 antigen
Test: FACS cell binding on CHO cells expressing cynomolgus PD-1
Method: (§1) A mix of parental CHO cells and CHO-PD1 cells was prepared as follows: Parental CHO cells were washed 2× in PBS then incubated in PBS containing 1 μM CellTrace™ Oregon Green488® (Life Technologies) at 37° C. for 30 minutes. Cells were then washed 2× with RPMI w/10% fetal calf serum (FCS), washed 2× with FACS buffer (PBS w/2% FCS), suspended thoroughly in ice-cold FACS buffer at a final concentration of 2×10⁶ cells/mL and kept on ice. CHO-PD1 cells were similarly washed with FACS buffer and kept on ice at 2×10⁶ cells/mL. Parental CHO cells and CHO-PD1 cells were then mixed to obtain a 1:1 cell suspension and seeded at 100 μL per well on 96 well polypropylene plates. Plates were spun at 1500 rpm for 5 minutes and cell pellets were suspended in 50 μL FACS buffer containing 6-12 point dilutions of anti-PD-1 variants starting from concentrations of −100-200 nM antibody, dispensed using BioMek FX (Beckman Coulter). Cells were then incubated on ice for 1 hr, washed with FACS buffer and incubated for 1 hr on ice with 50 μL FACS buffer containing 2.5 μg/ml R-phycoerythrin-conjugated goat anti-Human IgG (Jackson ImmunoResearch) or AF647-conjugated goat anti-mouse IgG (Life Technologies) dispensed using BioMek FX (Beckman Coulter). Cells were then washed 2× with FACS buffer and fixed for 10 minutes in 200 μL PBS with 2% paraformaldehyde (PFA) prior to fluorescence detection. Samples were acquired using a Becton Dickinson LSRII FACS. Mean Fluorescence Intensity of PD-1 antibody binding was analyzed using FlowJo® software (Tree Star, Inc.).
The affinity of the IgGs for cell-surface expressed cynomolgus PD-1 were measured according to Example 6, above.

T2 sequence (B0LAJ3 entry or part of it limits assumed, form in doubt): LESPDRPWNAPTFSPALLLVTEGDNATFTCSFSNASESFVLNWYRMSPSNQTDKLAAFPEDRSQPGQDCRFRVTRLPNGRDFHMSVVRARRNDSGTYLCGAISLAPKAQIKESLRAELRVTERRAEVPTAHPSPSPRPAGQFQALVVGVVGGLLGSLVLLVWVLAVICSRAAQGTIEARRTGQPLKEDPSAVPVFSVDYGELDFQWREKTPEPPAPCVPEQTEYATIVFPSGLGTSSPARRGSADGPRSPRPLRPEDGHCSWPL

Row | Binder | Kd [nM]
11 | B1 | 8
12 | B2 | 15
13 | B3 | 9
14 | B4 | 9
15 | B5 | 11
16 | B6 | 11
17 | B7 | 4
18 | B8 | 4
19 | B9 | 7
20 | B10 | 6

Molecular target: T1, Human PD-1 (ACROBiosystems, Inc., …)
Test: SPR (Biacore), scFv captured on anti-FLAG, PD-1 as analyte
Method: Monoclonal anti-FLAG M2 IgG (Sigma-Aldrich #F9291) was immobilized onto a CMS chip (GE Life Sciences) using amine coupling chemistry (from Amine Coupling Kit, GE Life Sciences). The immobilization steps were carried out at a flow rate of 25 μl/min in 1×HBS-EP+ buffer (GE Life Sciences; 10× Stock diluted before use). The sensor surfaces were activated for 7 min with a mixture of NHS (0.05 M) and EDC (0.2 M). The Anti-FLAG M2 IgG was injected over all 4 flow cells at a concentration of 25 μg/ml in 10 mM sodium acetate, pH 4.5, for 7 min. Ethanolamine (1 M, pH 8.5) was injected for 7 min to block any remaining activated groups.
Off-rate and kinetic binding experiments were performed at 25° C. using 1×HBS-EP+ buffer. Test and control antibodies were injected over the Anti-FLAG surface at concentrations of 5-10 μg/mL for 12 seconds at a flow rate of 10 μl/min on flow cells 2, 3 and 4, followed by a buffer wash for 30 seconds at the same flow rate. Kinetic characterization of antibody samples was carried out with a single concentration of antigen (for off-rate ranking) or a 1:2 dilution series of antigen (for kinetic characterization) and 1 injection of 0 nM antigen (i.e., buffer alone). After capturing ligand (anti-PD-1 antibody) on the anti-FLAG surface, the analyte (huPD1-His) was bound at 50, 25, 12.5, 6.25 and 0 nM for 180 seconds, followed by a 600 second dissociation phase at a flow rate of 50 μl/min. Between each ligand capture and analyte binding cycle, regeneration was carried out using 2 injections of 10 mM glycine pH 2.0 for 30 seconds at 30 μL/min, followed by a 30 second buffer wash step.
The data was fit with the Biacore T200 Evaluation software, using a 1:1 Langmuir binding model. KD (affinity, nM) was determined as a ratio of the kinetic rate constants calculated from the fits of the association and dissociation phases.

Row | Binder | Kd [nM] | koff [s⁻¹] | kon [M⁻¹ s⁻¹]
21 | B11 | 38.5 | 0.00182 | 47400
22 | B12 | 3.15 | 0.000628 | 200000
23 | B13 | 2.47 | 0.00299 | 1.21e+06
24 | B14 | 2.79 | 0.00324 | 1.16e+06
25 | B15 | 2.58 | 0.000468 | 182000
26 | B16 | 3.66 | 0.000679 | 185000
27 | B17 | 1.2 | 0.000617 | 513000
28 | B18 | 5.14 | 0.000417 | 81200
29 | B19 | 12.8 | 0.00239 | 186000

Molecular target: T3, human PD-1 expressed on the cell surface (CHO-PD1 cells) (human, UniProt Q15116 25-288)
T3 construct: Also used here as the target for native PD-1 on human PBMC / T cells in the functional (IFN-g) assays; also called CHO cell line overexpressing human PD-1; Cell-Surface Human PD-1 antigen
Test: FACS cell binding on CHO cells expressing human PD-1
Method: as §1
The affinity of the IgGs for cell-surface expressed human PD-1 were measured according to Example 6, above.

T3 sequence (Q15116 25-288 limits assumed): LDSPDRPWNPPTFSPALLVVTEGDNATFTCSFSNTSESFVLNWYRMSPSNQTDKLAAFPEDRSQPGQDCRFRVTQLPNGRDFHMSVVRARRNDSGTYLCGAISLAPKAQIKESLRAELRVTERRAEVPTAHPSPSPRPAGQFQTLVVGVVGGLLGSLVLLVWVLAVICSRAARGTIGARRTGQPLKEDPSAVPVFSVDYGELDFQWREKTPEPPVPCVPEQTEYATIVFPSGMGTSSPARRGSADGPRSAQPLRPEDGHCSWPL

Row | Binder | Kd [nM]
30 | B1 | 12
31 | B2 | 12
32 | B3 | 9
33 | B4 | 11
34 | B5 | 19
35 | B6 | 16
36 | B7 | 8
37 | B8 | 9
38 | B9 | 6
39 | B10 | 7
